Consider 2 molecules from paper PMC4475061.

In one experiment the target is other ESCRT-III proteins. The experiment in a line: fluorescence polarisation; data not shown; other ESCRT-III proteins. In general terms: In fluorescence polarisation assays a small probe gives low polarisation when free and higher when bound to something large.
Experiment [1] deals with T1, ULK3 fused to the VP16 activation domain, Q6PHR2.
T1 chain: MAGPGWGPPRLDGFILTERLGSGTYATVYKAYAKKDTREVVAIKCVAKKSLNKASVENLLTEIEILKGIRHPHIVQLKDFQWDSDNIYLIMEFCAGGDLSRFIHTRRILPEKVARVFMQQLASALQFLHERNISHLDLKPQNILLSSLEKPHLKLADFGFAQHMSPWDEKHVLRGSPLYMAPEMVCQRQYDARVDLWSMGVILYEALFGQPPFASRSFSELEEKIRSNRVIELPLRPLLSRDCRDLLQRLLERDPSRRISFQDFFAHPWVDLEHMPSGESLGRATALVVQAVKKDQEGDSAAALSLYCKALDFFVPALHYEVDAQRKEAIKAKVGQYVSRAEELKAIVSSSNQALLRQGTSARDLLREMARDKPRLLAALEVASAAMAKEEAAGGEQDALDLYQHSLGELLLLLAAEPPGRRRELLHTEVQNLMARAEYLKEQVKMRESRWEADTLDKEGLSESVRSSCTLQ
Description: yeast two-hybrid (β-galactosidase activity). The note with it: chain shown with the change;; parent: est. 0.66; read off a plot.

B1: ULK3(MIT)2 (residues 277–449) (domain or fragment)
chain: GPHMSGESLGRATALVVQAVKKDQEGDSAAALSLYCKALDFFVPALHYEVDAQRKEAIKAKVGQYVSRAEELKAIVSSSNQALLRQGTSARDLLREMARDKPRLLAALEVASAAMAKEEAAGGEQDALDLYQHSLGELLLLLAAEPPGRRRELLHTEVQNLMARAEYLKEQVKMRES
In general, Kd refers to the concentration at which binding is half-saturated. The low end stands for a tighter complex, the high end for a looser complex. Turning to B1, in the experiment with other ESCRT-III proteins, the Kd was 100 µM.

B2: CHMP1B WT fused to the Gal4 DNA-binding domain, Q7LBR1 T178R; A181R; E184R (protein)
chain: MSNMEKHLFNLKFAAKELSRSAKKCDKEEKAEKAKIKKAIQKGNMEVARIHAENAIRQKNQAVNFLRMSARVDAVAARVQTAVTMGKVTKSMAGVVKSMDATLKTMNLEKISALMDKFEHQFETLDVQTQQMEDTMSSTTTLTTPQNQVDMLLQEMADEAGLDLNMELPQGQTGSVGRSVRSARQDELSQRLARLRDQV
For B2, in experiment [1], the response is 0.5.
